In assay [1] the target is T1, ClpA D1 pore-2 loop variant KYR (AAS 295–297 to KYR), hexamer (E. coli, UniProt P0ABH9 1-758, M169T | 295–297 AAS to KYR).
T1 sequence: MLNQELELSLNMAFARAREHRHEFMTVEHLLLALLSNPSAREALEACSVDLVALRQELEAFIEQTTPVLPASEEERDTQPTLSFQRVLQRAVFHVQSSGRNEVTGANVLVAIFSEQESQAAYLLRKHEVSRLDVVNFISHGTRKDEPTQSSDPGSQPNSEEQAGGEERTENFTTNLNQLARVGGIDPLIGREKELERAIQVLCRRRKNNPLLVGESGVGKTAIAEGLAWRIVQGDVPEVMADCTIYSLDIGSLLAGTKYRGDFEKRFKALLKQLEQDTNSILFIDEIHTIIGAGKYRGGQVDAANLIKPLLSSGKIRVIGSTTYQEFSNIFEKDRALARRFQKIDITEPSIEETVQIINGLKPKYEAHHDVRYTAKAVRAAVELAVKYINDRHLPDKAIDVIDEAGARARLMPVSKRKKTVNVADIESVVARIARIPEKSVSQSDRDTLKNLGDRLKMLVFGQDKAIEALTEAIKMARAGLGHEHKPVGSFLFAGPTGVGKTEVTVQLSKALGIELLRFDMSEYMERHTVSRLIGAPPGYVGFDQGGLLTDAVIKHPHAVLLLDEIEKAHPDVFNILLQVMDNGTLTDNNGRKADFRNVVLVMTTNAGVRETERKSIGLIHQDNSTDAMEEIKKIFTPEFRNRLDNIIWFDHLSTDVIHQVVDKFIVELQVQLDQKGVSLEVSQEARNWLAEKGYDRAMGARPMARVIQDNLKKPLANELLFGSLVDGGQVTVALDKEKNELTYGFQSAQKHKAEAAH
The assay can be described thus: FP.

Assay [2] has as its target T2, ClpA D1 pore-2 loop variant GGG (AAS 295–297 to GGG), hexamer (E. coli, UniProt P0ABH9 1-758, M169T | 295–297 AAS to GGG).
T2 sequence: T1 sequence with K295G, Y296G, R297G
Briefly: FP.

The target of assay [3] is T3, ClpA D1 pore-2 loop variant Δ295–297, hexamer (E. coli, UniProt P0ABH9 1-758, M169T | Δ295–297).
T3 sequence: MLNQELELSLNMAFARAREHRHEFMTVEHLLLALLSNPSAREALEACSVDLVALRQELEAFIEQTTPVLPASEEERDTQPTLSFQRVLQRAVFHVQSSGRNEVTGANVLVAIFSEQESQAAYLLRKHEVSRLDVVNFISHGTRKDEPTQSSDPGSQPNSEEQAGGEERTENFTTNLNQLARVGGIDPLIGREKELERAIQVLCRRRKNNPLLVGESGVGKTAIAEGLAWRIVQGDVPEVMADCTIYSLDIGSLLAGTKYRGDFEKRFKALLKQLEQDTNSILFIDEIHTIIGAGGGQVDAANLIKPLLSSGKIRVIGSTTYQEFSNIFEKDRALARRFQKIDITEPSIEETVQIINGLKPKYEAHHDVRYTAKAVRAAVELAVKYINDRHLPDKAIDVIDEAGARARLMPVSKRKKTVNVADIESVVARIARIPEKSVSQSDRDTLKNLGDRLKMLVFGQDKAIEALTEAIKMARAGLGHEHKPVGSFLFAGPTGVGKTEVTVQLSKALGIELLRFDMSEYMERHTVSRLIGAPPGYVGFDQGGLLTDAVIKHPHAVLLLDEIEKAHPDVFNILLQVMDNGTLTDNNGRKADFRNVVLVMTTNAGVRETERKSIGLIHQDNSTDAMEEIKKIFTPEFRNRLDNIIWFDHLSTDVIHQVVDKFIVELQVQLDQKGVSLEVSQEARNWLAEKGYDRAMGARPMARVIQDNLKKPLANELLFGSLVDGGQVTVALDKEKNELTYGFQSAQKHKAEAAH
Briefly: FP.

The target in a further assay is T4, ClpS adaptor (E. coli, UniProt P0A8Q6 1-106).
T4 chain: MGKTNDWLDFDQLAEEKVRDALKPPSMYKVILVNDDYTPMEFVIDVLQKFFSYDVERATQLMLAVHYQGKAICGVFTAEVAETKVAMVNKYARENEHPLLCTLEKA
The assay can be described thus: FP.

In assay [4] the target is T5, ClpA D1 pore-2 loop variant QTQ (AAS 295–297 to QTQ), hexamer (E. coli, UniProt P0ABH9 1-758, M169T | 295–297 AAS to QTQ).
T5 sequence: T1 sequence with K295Q, Y296T, R297Q
The assay can be described thus: FP.

For assay [5], the target named is T6, ClpA (laboratory 'wild-type' ClpA carrying M169T), hexamer (E. coli, UniProt P0ABH9 1-758, M169T). The assay can be described thus: FP.
In assay [6] the target is T1, ClpA D1 pore-2 loop variant KYR (AAS …). Briefly: FP; equimolar ClpA6 + ClpS titrated against N-degron peptide.
The target in assay [7] is T2, ClpA D1 pore-2 loop variant GGG (AAS …). The assay is described as above.
In assay [8] the target is T3, ClpA D1 pore-2 loop variant Δ295–297, …. The description is as above.
Assay [9] has as its target T5, ClpA D1 pore-2 loop variant QTQ (AAS …). The assay is described as above.
In assay [10] the target is T6, ClpA (laboratory 'wild-type' ClpA …). Described as above.

Changes are numbered by the printed parent chain. Ends that are not written are not given here.

One may read the Kd as a measure of binding affinity in units of concentration. In the case of LLYVQRDSKEC-fluorescein (not fully specified (residue 11); printed as LLYVQRDSKEC-fluorescein) [LLYVQRDSKEC-fluorescein N-degron synthetic peptide], the Kd in assay [1] was 550 nM; in assay [2], 670 nM; in assay [3], 1200 nM; with ClpS adaptor, 2600 nM; in assay [4], 900 nM; in [5], 1200 nM.

B1: ClpS•N-degron peptide complex (ClpS with LLYVQRDSKEC-fluorescein) (complex)
chain 1: T4 chain
chain 2: LLYVQRDSKEC
modifications: fluorescein (printed as LLYVQRDSKEC-fluorescein)
With B1, the dissociation constant Kd turned out to be 73 nM in [6]; 41 nM in [7]; 44 nM in assay [8]; 65 nM in [9]; 56 nM in [10].

Values taken from publication PMC9663308 (2022).
